Assay results as given in article PMC3283691, “Low-Resolution Molecular Models Reveal the Oligomeric State of the PPAR and the Conformational Organization of Its Domains in Solution” (PLoS ONE, 2012).
Values joined by “and” are separate entries in the source; they are usually repeats but may differ in a detail not shown here. Equal values may be shown once. Each block holds one binder with its values, some of them ahead of it.

How the values were obtained:
[1] = molecular target: T1, human PPARγ LBD (amino acids 204–477) (Homo sapiens (Human), UniProt P37231-2); experiment: SEC, native PAGE, DLS, SAXS
T1 chain: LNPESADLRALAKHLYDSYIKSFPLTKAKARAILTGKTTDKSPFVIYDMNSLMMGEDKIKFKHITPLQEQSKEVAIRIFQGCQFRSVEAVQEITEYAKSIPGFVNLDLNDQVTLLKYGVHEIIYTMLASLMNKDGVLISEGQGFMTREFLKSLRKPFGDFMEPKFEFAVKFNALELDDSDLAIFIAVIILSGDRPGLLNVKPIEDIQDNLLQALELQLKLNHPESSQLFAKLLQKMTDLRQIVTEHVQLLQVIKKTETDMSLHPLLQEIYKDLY

[2] = molecular target: the molecule itself; experiment: dynamic light scattering; DLS after gel filtration; hPPARγ LBD at different concentrations
[3] = molecular target: the molecule itself; experiment: native gel or EMSA; native polyacrylamide gel electrophoresis after gel filtration; RH from band mobility; hPPARγ LBD at 1 to 20 mg/mL
[4] = molecular target: T2, human PPARγ LBD (amino acids 204–477) (human, UniProt P37231-2 204-477); experiment: SEC; analytical gel filtration, Superdex 75 HR 10/30 (LBD constructs) or Superdex 200 HR 10/30 (DBD-LBD constructs); 20 mM Hepes-Na pH 8.0, 3 mM dithiothreitol, 200 mM NaCl, 5% glycerol; heterodimers formed from 20 mg/mL of each protein, 1:1 molar, 1 h at 4°C; RH from calibration standards; settings: both partners purified
T2 construct: Cloned in pET28a(+); His-tag removed with thrombin; also called hPPARγ LBD; PPAR LBD
T2 sequence (looked up): T1 chain

[5] = molecular target: the molecule itself; experiment: as above
[6] = molecular target: T3, human PPARγ DBD-LBD (amino acids 101–468) (Homo sapiens (Human), UniProt P37231-2); experiment: SEC, SAXS, H/D exchange MS
T3 chain: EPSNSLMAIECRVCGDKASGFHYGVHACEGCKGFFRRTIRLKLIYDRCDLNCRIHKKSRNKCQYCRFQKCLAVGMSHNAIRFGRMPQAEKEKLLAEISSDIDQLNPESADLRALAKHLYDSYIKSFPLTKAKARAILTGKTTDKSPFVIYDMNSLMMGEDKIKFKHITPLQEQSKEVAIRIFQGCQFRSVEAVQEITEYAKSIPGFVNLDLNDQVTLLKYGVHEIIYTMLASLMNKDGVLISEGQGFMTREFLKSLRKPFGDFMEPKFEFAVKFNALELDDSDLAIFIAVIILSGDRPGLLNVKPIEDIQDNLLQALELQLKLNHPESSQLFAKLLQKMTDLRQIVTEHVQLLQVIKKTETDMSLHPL

binding result [1]: binds
binding result [4]: binds
B1: human RXRα LBD (amino acids 225–462) (domain or fragment, UniProt P19793 225-462, looked up)
chain: SANEDMPVERILEAELAVEPKTETYVEANMGLNPSSPNDPVTNICQAADKQLFTLVEWAKRIPHFSELPLDDQVILLRAGWNELLIASFSHRSIAVKDGILLATGLHVHRNSAHSAGVGAIFDRVLTELVSKMRDMQMDKTELGCLRAIVLFNPDSKGLSNPAEVEALREKVYASLEAYCKHKYPEQPGRFAKLLLRLPALRSIGLKCLEHLFFFKLIGDTPIDTFLMEMLEAPHQMT
notes: Cloned in pET28a(+); also called hRXRα LBD
stoichiometry N [2]: 4 and 2
stoichiometry N [3]: 4 and 2
stoichiometry N [5]: 2 and 4

binding result [6]: binds
B2: human RXRα DBD-LBD (amino acids 135–462) (protein)
chain: CAICGDRSSGKHYGVYSCEGCKGFFKRTVRKDLTYTCRDNKDCLIDKRQRNRCQYCRYQKCLAMGMKREAVQEERQRGKDRNENEVESTSSANEDMPVERILEAELAVEPKTETYVEANMGLNPSSPNDPVTNICQAADKQLFTLVEWAKRIPHFSELPLDDQVILLRAGWNELLIASFSHRSIAVKDGILLATGLHVHRNSAHSAGVGAIFDRVLTELVSKMRDMQMDKTELGCLRAIVLFNPDSKGLSNPAEVEALREKVYASLEAYCKHKYPEQPGRFAKLLLRLPALRSIGLKCLEHLFFFKLIGDTPIDTFLMEMLEAPHQMT
